Measured values: doi:10.1101/2022.03.10.483824

Biological target: Full length native cardiac myosin II from rabbit heart ventricle (rabbit) (UniProt P04461)
Test: optical trapping

maximum AM detachment rate (kcat, at saturating ATP): 88.2 s⁻¹
Substance: Biotinylated actin filament (chicken G actin polymerised with biotinylated G actin) (from UniProt P68139 1-377) (natural protein)
